Data taken from IntAct's records for PubMed 36931259.

B1: 14-3-3 protein sigma (Homo sapiens), P31947 (parent)
chain: MERASLIQKAKLAEQAERYEDMAAFMKGAVEKGEELSCEERNLLSVAYKNVVGGQRAAWRVLSSIEQKSNEEGSEEKGPEVREYREKVETELQGVCDTVLGLLDSHLIKEAGDAESRVFYLKMKGDYYRYLAEVATGDDKKRIIDSARSAYQEAMDISKKEMPPTNPIRLGLALNFSVFHYEIANSPEEAISLAKTTFDEAMADLHTLSEDSYKDSTLIMQLLRDNLTLWTADNAGEEGGEAPQEPQS
partner: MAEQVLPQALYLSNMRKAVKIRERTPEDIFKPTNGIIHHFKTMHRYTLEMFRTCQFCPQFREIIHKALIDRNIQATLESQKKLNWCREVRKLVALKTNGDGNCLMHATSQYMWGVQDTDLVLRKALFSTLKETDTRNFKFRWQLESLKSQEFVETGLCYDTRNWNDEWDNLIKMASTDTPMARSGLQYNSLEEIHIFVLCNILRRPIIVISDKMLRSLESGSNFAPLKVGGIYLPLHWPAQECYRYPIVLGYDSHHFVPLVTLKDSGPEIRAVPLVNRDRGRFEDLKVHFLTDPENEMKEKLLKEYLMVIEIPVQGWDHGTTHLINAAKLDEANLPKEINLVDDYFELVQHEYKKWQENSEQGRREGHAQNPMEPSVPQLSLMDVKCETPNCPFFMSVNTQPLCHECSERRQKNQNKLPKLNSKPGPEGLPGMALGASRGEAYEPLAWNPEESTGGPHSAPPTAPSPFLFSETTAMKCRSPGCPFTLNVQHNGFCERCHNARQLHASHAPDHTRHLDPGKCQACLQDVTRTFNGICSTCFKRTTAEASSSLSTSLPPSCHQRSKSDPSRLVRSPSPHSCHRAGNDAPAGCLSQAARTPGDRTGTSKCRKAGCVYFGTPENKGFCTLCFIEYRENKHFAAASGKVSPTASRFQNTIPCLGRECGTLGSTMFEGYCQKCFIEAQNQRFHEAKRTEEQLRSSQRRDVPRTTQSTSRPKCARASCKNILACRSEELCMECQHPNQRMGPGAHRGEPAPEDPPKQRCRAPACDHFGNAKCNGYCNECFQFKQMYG
B2: 14-3-3 protein sigma (Homo sapiens), P31947 (parent)
chain: B1 chain
partner: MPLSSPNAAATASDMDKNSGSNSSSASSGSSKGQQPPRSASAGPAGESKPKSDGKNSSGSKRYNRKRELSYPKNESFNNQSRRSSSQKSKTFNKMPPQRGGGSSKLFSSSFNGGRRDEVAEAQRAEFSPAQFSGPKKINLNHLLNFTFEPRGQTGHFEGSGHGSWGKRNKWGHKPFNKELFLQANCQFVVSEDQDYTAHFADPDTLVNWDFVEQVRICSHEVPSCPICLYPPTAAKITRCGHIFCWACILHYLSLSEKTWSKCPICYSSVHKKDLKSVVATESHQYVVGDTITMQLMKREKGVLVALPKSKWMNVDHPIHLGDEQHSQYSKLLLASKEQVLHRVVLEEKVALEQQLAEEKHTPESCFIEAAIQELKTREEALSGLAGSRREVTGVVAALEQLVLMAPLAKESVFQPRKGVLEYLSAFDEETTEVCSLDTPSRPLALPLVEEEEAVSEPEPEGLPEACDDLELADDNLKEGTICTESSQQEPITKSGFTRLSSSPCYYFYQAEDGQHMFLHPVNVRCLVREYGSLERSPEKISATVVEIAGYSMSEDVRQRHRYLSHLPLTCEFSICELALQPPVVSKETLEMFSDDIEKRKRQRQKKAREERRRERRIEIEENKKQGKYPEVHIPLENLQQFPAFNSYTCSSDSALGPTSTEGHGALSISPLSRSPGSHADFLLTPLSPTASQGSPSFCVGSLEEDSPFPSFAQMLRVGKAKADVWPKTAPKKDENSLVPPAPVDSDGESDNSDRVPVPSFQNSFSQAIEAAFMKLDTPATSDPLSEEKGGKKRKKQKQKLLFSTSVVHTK
B3: 14-3-3 protein sigma (Homo sapiens), P31947 (parent)
chain: B1 chain
partner: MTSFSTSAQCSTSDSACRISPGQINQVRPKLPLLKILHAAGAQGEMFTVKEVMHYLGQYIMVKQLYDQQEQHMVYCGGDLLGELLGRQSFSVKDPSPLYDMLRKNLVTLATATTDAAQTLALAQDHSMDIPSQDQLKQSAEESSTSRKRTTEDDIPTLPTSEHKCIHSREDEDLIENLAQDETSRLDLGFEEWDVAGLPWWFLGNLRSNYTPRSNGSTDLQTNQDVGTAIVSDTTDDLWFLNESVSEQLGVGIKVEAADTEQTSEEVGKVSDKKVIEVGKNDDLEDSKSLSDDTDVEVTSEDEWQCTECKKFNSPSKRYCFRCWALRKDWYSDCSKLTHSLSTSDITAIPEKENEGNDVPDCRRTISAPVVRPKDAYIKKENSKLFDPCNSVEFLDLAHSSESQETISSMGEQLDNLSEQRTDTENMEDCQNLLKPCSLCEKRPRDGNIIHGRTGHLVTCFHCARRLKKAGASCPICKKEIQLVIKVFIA
B4: 14-3-3 protein sigma (Homo sapiens), P31947 (parent)
chain: B1 chain
partner: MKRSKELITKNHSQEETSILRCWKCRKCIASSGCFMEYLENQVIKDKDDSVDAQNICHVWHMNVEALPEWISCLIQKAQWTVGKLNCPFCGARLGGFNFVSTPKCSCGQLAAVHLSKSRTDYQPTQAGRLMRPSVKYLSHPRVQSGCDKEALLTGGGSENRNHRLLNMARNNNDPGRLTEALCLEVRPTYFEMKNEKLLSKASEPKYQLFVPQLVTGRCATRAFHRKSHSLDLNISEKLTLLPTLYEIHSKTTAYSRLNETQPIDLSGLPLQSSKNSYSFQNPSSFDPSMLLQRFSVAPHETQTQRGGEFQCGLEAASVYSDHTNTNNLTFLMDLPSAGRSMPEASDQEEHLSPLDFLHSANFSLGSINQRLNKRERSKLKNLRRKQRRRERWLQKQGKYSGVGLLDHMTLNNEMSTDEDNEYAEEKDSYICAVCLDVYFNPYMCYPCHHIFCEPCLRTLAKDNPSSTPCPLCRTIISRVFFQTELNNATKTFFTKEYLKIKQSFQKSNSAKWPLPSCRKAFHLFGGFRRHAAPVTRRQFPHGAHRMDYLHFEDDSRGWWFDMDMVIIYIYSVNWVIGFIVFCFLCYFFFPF
B5: 14-3-3 protein sigma (Homo sapiens), P31947 (parent)
chain: B1 chain
partner: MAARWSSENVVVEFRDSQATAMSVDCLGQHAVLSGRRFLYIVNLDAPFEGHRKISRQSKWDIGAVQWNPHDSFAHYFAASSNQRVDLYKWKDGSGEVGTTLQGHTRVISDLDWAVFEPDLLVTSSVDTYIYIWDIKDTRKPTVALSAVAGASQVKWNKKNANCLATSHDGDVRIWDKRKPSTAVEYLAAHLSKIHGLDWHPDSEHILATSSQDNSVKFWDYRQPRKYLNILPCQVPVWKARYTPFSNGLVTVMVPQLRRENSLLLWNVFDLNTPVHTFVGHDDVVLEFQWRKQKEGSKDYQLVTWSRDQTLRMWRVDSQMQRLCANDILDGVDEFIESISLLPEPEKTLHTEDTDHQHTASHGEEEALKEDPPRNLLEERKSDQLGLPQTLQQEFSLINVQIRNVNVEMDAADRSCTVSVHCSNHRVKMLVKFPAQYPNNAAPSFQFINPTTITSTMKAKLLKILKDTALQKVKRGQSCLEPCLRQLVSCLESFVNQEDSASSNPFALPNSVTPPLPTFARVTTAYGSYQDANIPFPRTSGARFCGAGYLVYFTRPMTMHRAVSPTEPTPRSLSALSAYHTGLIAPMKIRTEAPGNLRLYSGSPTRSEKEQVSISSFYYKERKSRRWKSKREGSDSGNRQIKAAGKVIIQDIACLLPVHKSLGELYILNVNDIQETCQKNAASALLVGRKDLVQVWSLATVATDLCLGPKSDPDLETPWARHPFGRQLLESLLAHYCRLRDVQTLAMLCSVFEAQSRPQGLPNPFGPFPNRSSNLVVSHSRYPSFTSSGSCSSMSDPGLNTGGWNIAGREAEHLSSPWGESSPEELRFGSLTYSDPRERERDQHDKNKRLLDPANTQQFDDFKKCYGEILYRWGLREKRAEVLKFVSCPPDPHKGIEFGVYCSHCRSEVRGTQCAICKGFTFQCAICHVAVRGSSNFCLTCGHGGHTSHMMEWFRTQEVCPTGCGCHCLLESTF
B6: 14-3-3 protein sigma (Homo sapiens), P31947 (parent)
chain: B1 chain
partner: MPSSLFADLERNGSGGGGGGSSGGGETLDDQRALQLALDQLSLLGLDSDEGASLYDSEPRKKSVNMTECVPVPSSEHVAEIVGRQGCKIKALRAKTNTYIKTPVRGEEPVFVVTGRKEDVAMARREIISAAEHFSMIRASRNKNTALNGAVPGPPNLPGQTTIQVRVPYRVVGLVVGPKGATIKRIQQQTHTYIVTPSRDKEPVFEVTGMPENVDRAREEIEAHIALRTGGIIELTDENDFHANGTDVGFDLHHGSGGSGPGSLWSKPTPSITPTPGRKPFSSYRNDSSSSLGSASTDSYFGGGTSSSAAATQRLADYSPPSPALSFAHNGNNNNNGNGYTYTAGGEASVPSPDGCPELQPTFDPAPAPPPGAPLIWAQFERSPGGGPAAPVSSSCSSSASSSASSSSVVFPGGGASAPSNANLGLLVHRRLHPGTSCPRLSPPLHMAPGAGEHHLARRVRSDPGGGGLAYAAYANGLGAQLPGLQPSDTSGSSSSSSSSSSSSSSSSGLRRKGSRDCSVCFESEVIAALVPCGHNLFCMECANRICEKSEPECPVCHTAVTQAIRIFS

Variants of: B1
Settings: with tnap3_human TNFAIP3, P21580

| effect of a mutation on the interaction | Variant |
| --- | --- |
| decreasing interaction strength | K49E;R56E;V178D |

Variants of: B2
Settings: with rnf10_human RNF10, Q8N5U6

| effect of a mutation on the interaction | Variant |
| --- | --- |
| decreasing interaction strength | K49E;R56E;V178D |

Variants of: B3
Settings: with mdm4_human MDM4, O15151

| effect of a mutation on the interaction | Variant |
| --- | --- |
| decreasing interaction strength | K49E;R56E;V178D |

Variants of: B4
Settings: with rn180_human RNF180, Q86T96

| effect of a mutation on the interaction | Variant |
| --- | --- |
| decreasing interaction strength | K49E;R56E;V178D |

Variants of: B5
Settings: with wdr59_human WDR59, Q6PJI9

| effect of a mutation on the interaction | Variant |
| --- | --- |
| decreasing interaction strength | K49E;R56E;V178D |

Variants of: B6
Settings: with mex3b_human MEX3B

| effect of a mutation on the interaction | Variant |
| --- | --- |
| decreasing interaction strength | K49E;R56E;V178D |
